Data: IntAct's records for PubMed 23629652

Target: klk5_human KLK5 (UniProt Q9Y337)
Sequence (Q9Y337 whole entry): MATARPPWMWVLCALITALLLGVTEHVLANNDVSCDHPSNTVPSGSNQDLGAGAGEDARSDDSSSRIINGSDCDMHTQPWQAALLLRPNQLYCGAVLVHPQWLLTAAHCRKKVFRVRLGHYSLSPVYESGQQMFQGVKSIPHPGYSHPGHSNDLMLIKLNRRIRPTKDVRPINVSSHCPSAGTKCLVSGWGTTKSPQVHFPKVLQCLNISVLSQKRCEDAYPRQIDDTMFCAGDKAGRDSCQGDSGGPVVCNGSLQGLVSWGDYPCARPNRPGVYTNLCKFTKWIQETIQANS

Filaggrin (Homo sapiens), P20930 S3385H;Y3388H;Q3389H;S3391H;T3392H
effect of a mutation on the interaction: disrupting interaction
